# Test results published in patent US20140087995A1 (published 2014).
# Numbered stars: 1 amine (or outer) side, 2 acyl side, 3 side chain; on linkers, the order of the positions; unused ones are H or OH. Bridge positions count the residues as written; N and C are the ends. Side chains are listed from the residue outwards. Ends that are not written are not given here. * marks the point of attachment. C20 diacid = O=C(O)CCCCCCCCCCCCCCCCCCC(=O)*; γGlu = O=C(O)[C@H](CCC(=O)[*:2])N[*:1]
# T1: rat calcitonin receptor (rat, UniProt P32214 25-516)
# T1 construct: whole, on cells; also called rCTR; rat calcitonin (a) receptor
# T1 sequence (looked up): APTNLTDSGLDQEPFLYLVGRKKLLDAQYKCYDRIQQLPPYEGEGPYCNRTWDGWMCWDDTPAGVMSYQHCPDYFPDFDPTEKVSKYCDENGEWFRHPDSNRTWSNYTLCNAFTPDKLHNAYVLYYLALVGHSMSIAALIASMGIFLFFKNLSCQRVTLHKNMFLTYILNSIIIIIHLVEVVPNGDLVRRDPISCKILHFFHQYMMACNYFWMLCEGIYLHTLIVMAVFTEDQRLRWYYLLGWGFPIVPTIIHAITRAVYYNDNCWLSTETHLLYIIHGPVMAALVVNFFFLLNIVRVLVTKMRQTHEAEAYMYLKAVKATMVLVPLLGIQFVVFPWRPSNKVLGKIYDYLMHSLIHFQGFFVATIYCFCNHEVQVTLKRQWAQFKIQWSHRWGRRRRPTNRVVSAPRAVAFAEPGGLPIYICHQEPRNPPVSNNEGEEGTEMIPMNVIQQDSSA
# T2: human calcitonin receptor (human, UniProt P30988 25-474)
# T2 construct: whole, on cells; also called hCTR; hCT
# T2 sequence (looked up): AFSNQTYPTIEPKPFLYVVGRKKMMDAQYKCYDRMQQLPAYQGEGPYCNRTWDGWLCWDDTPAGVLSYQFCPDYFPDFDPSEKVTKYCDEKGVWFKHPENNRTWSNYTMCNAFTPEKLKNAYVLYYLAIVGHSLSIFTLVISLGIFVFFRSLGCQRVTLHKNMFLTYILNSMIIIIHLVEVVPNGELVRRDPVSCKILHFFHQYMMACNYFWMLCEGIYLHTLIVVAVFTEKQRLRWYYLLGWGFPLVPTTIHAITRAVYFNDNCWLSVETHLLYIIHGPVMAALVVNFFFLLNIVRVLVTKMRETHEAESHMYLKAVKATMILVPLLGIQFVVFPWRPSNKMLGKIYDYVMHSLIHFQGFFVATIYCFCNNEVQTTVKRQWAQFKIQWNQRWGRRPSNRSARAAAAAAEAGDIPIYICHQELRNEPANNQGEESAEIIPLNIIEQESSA
# T3: rat amylin receptor (rat calcitonin receptor + rat RAMP 3) (rat, UniProt P32214 25-516; Q9JJ73 23-147)
# T3 construct: whole, on cells; also called rAmylin-R; rat amylin 3(a) receptor
# T3 sequence (looked up) 1: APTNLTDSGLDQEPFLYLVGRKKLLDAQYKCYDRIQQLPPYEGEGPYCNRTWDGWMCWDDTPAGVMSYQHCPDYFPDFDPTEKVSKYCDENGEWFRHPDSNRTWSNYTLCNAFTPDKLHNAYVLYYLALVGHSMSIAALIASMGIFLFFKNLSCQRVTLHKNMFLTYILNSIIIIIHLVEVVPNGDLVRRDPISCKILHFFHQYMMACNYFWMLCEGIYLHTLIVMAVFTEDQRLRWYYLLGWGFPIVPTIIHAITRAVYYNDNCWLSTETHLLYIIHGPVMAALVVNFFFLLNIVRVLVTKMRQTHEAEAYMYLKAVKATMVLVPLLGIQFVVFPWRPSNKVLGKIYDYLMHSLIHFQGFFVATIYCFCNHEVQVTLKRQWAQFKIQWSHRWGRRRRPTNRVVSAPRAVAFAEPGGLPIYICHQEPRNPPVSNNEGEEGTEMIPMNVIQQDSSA
# T3 sequence (looked up) 2: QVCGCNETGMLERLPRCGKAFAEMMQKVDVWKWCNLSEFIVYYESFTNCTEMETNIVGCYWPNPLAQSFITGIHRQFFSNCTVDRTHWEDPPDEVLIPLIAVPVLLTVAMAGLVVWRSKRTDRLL
# Tests used:
# rat calcitonin receptor [1] = biological target: T1, rat calcitonin receptor; test: ratio of binding IC50s: rat calcitonin receptor over rat amylin receptor (reference)
# [2] = biological target: T2, human calcitonin receptor; test: ratio of binding IC50s: human calcitonin receptor over human amylin receptor (reference)
# How it was run: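 Competition binding by SPA uses membrane preparations (35 ng/μL final) in pH 7.4 Hepes buffer with 1 mM CaCl2 and 5 mM MgCl₂. Incubation lasts 120 min at 25° C, and IC₅₀ comes from one-site fitting.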
# rat calcitonin receptor [3] = biological target: T1, rat calcitonin receptor; test: SPA competition with 125I-calcitonin, membranes of BHK cells with rat calcitonin receptor (Assay VIII)
# [4] = biological target: T3, rat amylin receptor (rat calcitonin …); test: SPA competition with 125I-rat amylin, membranes of BHK cells with rat calcitonin receptor + rat RAMP3 (Assay VI)
binder,measurement,setting,value
"K([γGlu-C20 diacid])CNTATCATQRLARFLRHSSPNFGAIPSSTNVGPNTY-NH2 (disulfide 2-7; N-terminus assumed; SMILES CC[C@H](C)[C@H](NC(=O)[C@H](C)NC(=O)CNC(=O)[C@H](Cc1ccccc1)NC(=O)[C@H](CC(N)=O)NC(=O)[C@@H]1CCCN1C(=O)[C@H](CO)NC(=O)[C@H](CO)NC(=O)[C@H](Cc1c[nH]cn1)NC(=O)[C@H](CCCNC(=N)N)NC(=O)[C@H](CC(C)C)NC(=O)[C@H](Cc1ccccc1)NC(=O)[C@H](CCCNC(=N)N)NC(=O)[C@H](C)NC(=O)[C@H](CC(C)C)NC(=O)[C@H](CCCNC(=N)N)NC(=O)[C@H](CCC(N)=O)NC(=O)[C@@H](NC(=O)[C@H](C)NC(=O)[C@@H]1CSSC[C@H](NC(=O)[C@@H](N)CCCCNC(=O)CC[C@H](NC(=O)CCCCCCCCCCCCCCCCCCC(=O)O)C(=O)O)C(=O)N[C@@H](CC(N)=O)C(=O)N[C@@H]([C@@H](C)O)C(=O)N[C@@H](C)C(=O)N[C@@H]([C@@H](C)O)C(=O)N1)[C@@H](C)O)C(=O)N1CCC[C@H]1C(=O)N[C@@H](CO)C(=O)N[C@@H](CO)C(=O)N[C@H](C(=O)N[C@@H](CC(N)=O)C(=O)N[C@H](C(=O)NCC(=O)N1CCC[C@H]1C(=O)N[C@@H](CC(N)=O)C(=O)N[C@H](C(=O)N[C@@H](Cc1ccc(O)cc1)C(N)=O)[C@@H](C)O)C(C)C)[C@@H](C)O, synthetic analogue of human amylin; also called compound 65)",Ratio rCT/rAmylin binding,rat calcitonin receptor [1],93.2
same,Ratio hCT/hAmylin binding,[2],82.4
same,IC50,rat calcitonin receptor [3],108 nM
same,IC50,[4],1.16 nM
"K([γGlu-C20 diacid])CNTATCATQRLARFLRHSSPNFGAIPSSTNVGSNTY-NH2 (disulfide 2-7; N-terminus assumed; SMILES CC[C@H](C)[C@H](NC(=O)[C@H](C)NC(=O)CNC(=O)[C@H](Cc1ccccc1)NC(=O)[C@H](CC(N)=O)NC(=O)[C@@H]1CCCN1C(=O)[C@H](CO)NC(=O)[C@H](CO)NC(=O)[C@H](Cc1c[nH]cn1)NC(=O)[C@H](CCCNC(=N)N)NC(=O)[C@H](CC(C)C)NC(=O)[C@H](Cc1ccccc1)NC(=O)[C@H](CCCNC(=N)N)NC(=O)[C@H](C)NC(=O)[C@H](CC(C)C)NC(=O)[C@H](CCCNC(=N)N)NC(=O)[C@H](CCC(N)=O)NC(=O)[C@@H](NC(=O)[C@H](C)NC(=O)[C@@H]1CSSC[C@H](NC(=O)[C@@H](N)CCCCNC(=O)CC[C@H](NC(=O)CCCCCCCCCCCCCCCCCCC(=O)O)C(=O)O)C(=O)N[C@@H](CC(N)=O)C(=O)N[C@@H]([C@@H](C)O)C(=O)N[C@@H](C)C(=O)N[C@@H]([C@@H](C)O)C(=O)N1)[C@@H](C)O)C(=O)N1CCC[C@H]1C(=O)N[C@@H](CO)C(=O)N[C@@H](CO)C(=O)N[C@H](C(=O)N[C@@H](CC(N)=O)C(=O)N[C@H](C(=O)NCC(=O)N[C@@H](CO)C(=O)N[C@@H](CC(N)=O)C(=O)N[C@H](C(=O)N[C@@H](Cc1ccc(O)cc1)C(N)=O)[C@@H](C)O)C(C)C)[C@@H](C)O, synthetic analogue of human amylin; also called compound 83) [N^ε1-[(4S)-4-carboxy-4-(19-carboxynonadecanoylamino)butanoyl]-[Arg14,Arg17,Pro21,Pro27]-h-amylin]",Ratio rCT/rAmylin binding,rat calcitonin receptor [1],49.7
same,Ratio hCT/hAmylin binding,[2],146
same,IC50,rat calcitonin receptor [3],140 nM
same,IC50,[4],2.83 nM
"K([γGlu-C20 diacid])CNTATCATQRLANFLRHSSPNFGAIPSSTNVGRNTY-NH2 (disulfide 2-7; N-terminus assumed; SMILES CC[C@H](C)[C@H](NC(=O)[C@H](C)NC(=O)CNC(=O)[C@H](Cc1ccccc1)NC(=O)[C@H](CC(N)=O)NC(=O)[C@@H]1CCCN1C(=O)[C@H](CO)NC(=O)[C@H](CO)NC(=O)[C@H](Cc1c[nH]cn1)NC(=O)[C@H](CCCNC(=N)N)NC(=O)[C@H](CC(C)C)NC(=O)[C@H](Cc1ccccc1)NC(=O)[C@H](CC(N)=O)NC(=O)[C@H](C)NC(=O)[C@H](CC(C)C)NC(=O)[C@H](CCCNC(=N)N)NC(=O)[C@H](CCC(N)=O)NC(=O)[C@@H](NC(=O)[C@H](C)NC(=O)[C@@H]1CSSC[C@H](NC(=O)[C@@H](N)CCCCNC(=O)CC[C@H](NC(=O)CCCCCCCCCCCCCCCCCCC(=O)O)C(=O)O)C(=O)N[C@@H](CC(N)=O)C(=O)N[C@@H]([C@@H](C)O)C(=O)N[C@@H](C)C(=O)N[C@@H]([C@@H](C)O)C(=O)N1)[C@@H](C)O)C(=O)N1CCC[C@H]1C(=O)N[C@@H](CO)C(=O)N[C@@H](CO)C(=O)N[C@H](C(=O)N[C@@H](CC(N)=O)C(=O)N[C@H](C(=O)NCC(=O)N[C@@H](CCCNC(=N)N)C(=O)N[C@@H](CC(N)=O)C(=O)N[C@H](C(=O)N[C@@H](Cc1ccc(O)cc1)C(N)=O)[C@@H](C)O)C(C)C)[C@@H](C)O, synthetic analogue of human amylin; also called compound 79) [N^ε1-[(4S)-4-carboxy-4-(19-carboxynonadecanoylamino)butanoyl]-[Arg17,Pro21,Pro27,Arg34]-h-amylin]",Ratio rCT/rAmylin binding,rat calcitonin receptor [1],21.5
same,Ratio hCT/hAmylin binding,[2],46.1
same,IC50,rat calcitonin receptor [3],35.5 nM
same,IC50,[4],1.65 nM
"K([γGlu-C20 diacid])CNTATCATQRLANFLRHSSPNFGAIPSSTNVGHNTY-NH2 (disulfide 2-7; N-terminus assumed; SMILES CC[C@H](C)[C@H](NC(=O)[C@H](C)NC(=O)CNC(=O)[C@H](Cc1ccccc1)NC(=O)[C@H](CC(N)=O)NC(=O)[C@@H]1CCCN1C(=O)[C@H](CO)NC(=O)[C@H](CO)NC(=O)[C@H](Cc1c[nH]cn1)NC(=O)[C@H](CCCNC(=N)N)NC(=O)[C@H](CC(C)C)NC(=O)[C@H](Cc1ccccc1)NC(=O)[C@H](CC(N)=O)NC(=O)[C@H](C)NC(=O)[C@H](CC(C)C)NC(=O)[C@H](CCCNC(=N)N)NC(=O)[C@H](CCC(N)=O)NC(=O)[C@@H](NC(=O)[C@H](C)NC(=O)[C@@H]1CSSC[C@H](NC(=O)[C@@H](N)CCCCNC(=O)CC[C@H](NC(=O)CCCCCCCCCCCCCCCCCCC(=O)O)C(=O)O)C(=O)N[C@@H](CC(N)=O)C(=O)N[C@@H]([C@@H](C)O)C(=O)N[C@@H](C)C(=O)N[C@@H]([C@@H](C)O)C(=O)N1)[C@@H](C)O)C(=O)N1CCC[C@H]1C(=O)N[C@@H](CO)C(=O)N[C@@H](CO)C(=O)N[C@H](C(=O)N[C@@H](CC(N)=O)C(=O)N[C@H](C(=O)NCC(=O)N[C@@H](Cc1c[nH]cn1)C(=O)N[C@@H](CC(N)=O)C(=O)N[C@H](C(=O)N[C@@H](Cc1ccc(O)cc1)C(N)=O)[C@@H](C)O)C(C)C)[C@@H](C)O, synthetic analogue of human amylin; also called compound 77) [N^ε1-[(4S)-4-carboxy-4-(19-carboxynonadecanoylamino)butanoyl]-[Arg17,Pro21,Pro27,His34]-h-amylin]",Ratio rCT/rAmylin binding,rat calcitonin receptor [1],137
same,Ratio hCT/hAmylin binding,[2],118
same,IC50,rat calcitonin receptor [3],205 nM
same,IC50,[4],1.5 nM
"K([γGlu-C20 diacid])CNTATCATQRLANFLRHSSPNFGAIPSSTNVGSHTY-NH2 (disulfide 2-7; N-terminus assumed; SMILES CC[C@H](C)[C@H](NC(=O)[C@H](C)NC(=O)CNC(=O)[C@H](Cc1ccccc1)NC(=O)[C@H](CC(N)=O)NC(=O)[C@@H]1CCCN1C(=O)[C@H](CO)NC(=O)[C@H](CO)NC(=O)[C@H](Cc1c[nH]cn1)NC(=O)[C@H](CCCNC(=N)N)NC(=O)[C@H](CC(C)C)NC(=O)[C@H](Cc1ccccc1)NC(=O)[C@H](CC(N)=O)NC(=O)[C@H](C)NC(=O)[C@H](CC(C)C)NC(=O)[C@H](CCCNC(=N)N)NC(=O)[C@H](CCC(N)=O)NC(=O)[C@@H](NC(=O)[C@H](C)NC(=O)[C@@H]1CSSC[C@H](NC(=O)[C@@H](N)CCCCNC(=O)CC[C@H](NC(=O)CCCCCCCCCCCCCCCCCCC(=O)O)C(=O)O)C(=O)N[C@@H](CC(N)=O)C(=O)N[C@@H]([C@@H](C)O)C(=O)N[C@@H](C)C(=O)N[C@@H]([C@@H](C)O)C(=O)N1)[C@@H](C)O)C(=O)N1CCC[C@H]1C(=O)N[C@@H](CO)C(=O)N[C@@H](CO)C(=O)N[C@H](C(=O)N[C@@H](CC(N)=O)C(=O)N[C@H](C(=O)NCC(=O)N[C@@H](CO)C(=O)N[C@@H](Cc1c[nH]cn1)C(=O)N[C@H](C(=O)N[C@@H](Cc1ccc(O)cc1)C(N)=O)[C@@H](C)O)C(C)C)[C@@H](C)O, synthetic analogue of human amylin; also called compound 60) [N^ε1-[(4S)-4-carboxy-4-(19-carboxynonadecanoylamino)butanoyl]-[Arg17,Pro21,Pro27,His35]-h-amylin]",Ratio rCT/rAmylin binding,rat calcitonin receptor [1],122
same,Ratio hCT/hAmylin binding,[2],45.2
same,IC50,rat calcitonin receptor [3],26.3 nM
same,IC50,[4],0.215 nM
